Key:
[1] = target: fibrin (clot prepared from fibrinogen with bovine thrombin); experiment: fibrin clot binding assay, 0.3 mg/ml fibrinogen; bound enzyme = total minus free in supernatant by ELISA
[2] = target: fibrin (clot prepared from fibrinogen with bovine thrombin); experiment: fibrin clot binding assay, 0.1 mg/ml fibrinogen; bound enzyme = total minus free in supernatant by ELISA
[3] = target: fibrin (clot prepared from fibrinogen with bovine thrombin); experiment: fibrin clot binding assay; ratio of CT-b to full-length t-PA

With “chimeric truncated tissue plasminogen activator (CT t-PA) or CT-b (from UniProt P98119 37-82; P00750 82-214; P00750 297-562) (enzyme)” the percent fibrin binding [1] was 60%, the percent fibrin binding [2] was 28% and the fold fibrin binding against full-length t-PA [3] was 1.2 fold.

“full length t-PA (native human tissue plasminogen activator) (from UniProt P00750 36-562) (enzyme)” was tested, and the percent fibrin binding [1] was 51% and the percent fibrin binding [2] was 24%.

Source: patent publication US20150259666A1
